Test results: US20230127946A1 (SUZHOU PRO HEAL PHARMACEUTICALS TECHNOLOGY, published 2023)

Experiments:
IGF-1R on MCF-7 cells = IGF-1R on MCF-7 cells (UniProt P08069 31-1367, limits assumed); assay: cell-based or functional assay
Human IGF-1R protein = target: T1, Human IGF-1R protein (human, UniProt P08069 31-932); assay: BLI (Octet RED96), antibody captured on AHC biosensor, IGF-1R in solution, 1:1 model
T1 construct: Bought protein; also called human IGF-1R (ARCO, No. IGR-H5229)
From the text: After 14 days of culture, the culture supernatant was collected by centrifugation, and purify the antibodies with affinity purification column. Octet RED96 protein interaction workstation was used to detect the affinity of the above purified antibodies with human IGF-1R (Human IGF-1R, ARCO, No. IGR-H5229) separately. Biosensor AHC (18-5060) was used to capture the samples, and then the captured samples were compared with human IGF-1R. The dynamics of binding and dissociation of […] were detected. Dynamics uses 1:1 combined model for fitting analysis. The brief action steps are: protein loading for 200 s, binding for 180 s, dissociation for 300 s, regeneration for 30 s.

IGF-1R on MCF-7 cells, sequence (P08069 31-1367 limits assumed): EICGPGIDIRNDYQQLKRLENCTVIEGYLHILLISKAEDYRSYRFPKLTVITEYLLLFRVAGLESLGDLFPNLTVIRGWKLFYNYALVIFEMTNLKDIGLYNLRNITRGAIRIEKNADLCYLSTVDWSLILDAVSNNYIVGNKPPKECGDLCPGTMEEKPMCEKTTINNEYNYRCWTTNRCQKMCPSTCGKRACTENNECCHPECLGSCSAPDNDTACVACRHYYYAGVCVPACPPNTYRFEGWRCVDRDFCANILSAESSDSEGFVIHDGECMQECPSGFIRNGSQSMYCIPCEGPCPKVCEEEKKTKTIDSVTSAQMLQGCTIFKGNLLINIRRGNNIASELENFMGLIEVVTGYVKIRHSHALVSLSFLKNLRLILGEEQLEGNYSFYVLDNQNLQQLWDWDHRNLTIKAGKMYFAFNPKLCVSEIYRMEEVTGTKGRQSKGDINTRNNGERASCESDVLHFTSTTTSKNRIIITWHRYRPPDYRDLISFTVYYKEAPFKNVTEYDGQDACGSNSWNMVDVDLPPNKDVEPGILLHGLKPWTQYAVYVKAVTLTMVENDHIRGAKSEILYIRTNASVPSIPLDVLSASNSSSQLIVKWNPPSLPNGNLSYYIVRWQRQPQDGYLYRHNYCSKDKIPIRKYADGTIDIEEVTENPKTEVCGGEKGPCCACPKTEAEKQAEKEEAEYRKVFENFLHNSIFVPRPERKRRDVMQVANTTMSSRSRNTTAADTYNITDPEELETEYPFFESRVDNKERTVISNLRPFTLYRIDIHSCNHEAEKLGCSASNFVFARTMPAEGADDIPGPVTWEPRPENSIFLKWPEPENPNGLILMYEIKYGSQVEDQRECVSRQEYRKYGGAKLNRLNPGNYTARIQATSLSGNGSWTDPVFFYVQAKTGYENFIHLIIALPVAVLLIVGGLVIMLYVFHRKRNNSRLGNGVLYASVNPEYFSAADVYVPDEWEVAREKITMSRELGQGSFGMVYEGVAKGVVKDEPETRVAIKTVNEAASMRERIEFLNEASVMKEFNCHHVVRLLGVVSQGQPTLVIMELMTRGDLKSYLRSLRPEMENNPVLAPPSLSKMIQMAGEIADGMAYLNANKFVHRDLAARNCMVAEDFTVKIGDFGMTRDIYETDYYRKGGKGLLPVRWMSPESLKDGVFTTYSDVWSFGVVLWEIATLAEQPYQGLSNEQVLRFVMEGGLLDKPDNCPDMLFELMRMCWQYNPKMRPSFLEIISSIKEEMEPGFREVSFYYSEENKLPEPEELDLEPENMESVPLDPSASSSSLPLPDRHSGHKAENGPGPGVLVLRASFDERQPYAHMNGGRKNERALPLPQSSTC
T1 sequence (P08069 31-932 limits assumed): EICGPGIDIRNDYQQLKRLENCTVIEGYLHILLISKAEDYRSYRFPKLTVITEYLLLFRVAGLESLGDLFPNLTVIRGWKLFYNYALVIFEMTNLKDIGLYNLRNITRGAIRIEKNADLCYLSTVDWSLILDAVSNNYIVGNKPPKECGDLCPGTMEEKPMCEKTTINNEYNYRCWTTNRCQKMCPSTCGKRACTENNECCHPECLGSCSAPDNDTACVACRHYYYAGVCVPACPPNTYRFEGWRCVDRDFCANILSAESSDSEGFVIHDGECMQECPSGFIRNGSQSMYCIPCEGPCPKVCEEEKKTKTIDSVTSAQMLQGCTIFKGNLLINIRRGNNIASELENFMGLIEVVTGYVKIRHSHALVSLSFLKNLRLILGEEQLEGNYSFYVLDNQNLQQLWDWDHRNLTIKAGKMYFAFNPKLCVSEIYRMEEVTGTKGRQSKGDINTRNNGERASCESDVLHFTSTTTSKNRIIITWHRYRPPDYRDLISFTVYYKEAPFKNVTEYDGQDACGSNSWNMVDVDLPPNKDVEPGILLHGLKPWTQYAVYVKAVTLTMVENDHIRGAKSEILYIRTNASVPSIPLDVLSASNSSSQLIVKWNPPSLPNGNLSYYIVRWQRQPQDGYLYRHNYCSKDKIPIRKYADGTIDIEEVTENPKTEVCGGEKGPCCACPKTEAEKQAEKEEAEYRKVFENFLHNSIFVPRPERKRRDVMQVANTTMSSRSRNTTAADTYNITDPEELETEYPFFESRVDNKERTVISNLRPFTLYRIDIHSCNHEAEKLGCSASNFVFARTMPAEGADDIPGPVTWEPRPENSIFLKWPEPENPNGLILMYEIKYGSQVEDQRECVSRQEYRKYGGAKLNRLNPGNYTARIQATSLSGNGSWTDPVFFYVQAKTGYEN

B1: PHP1003-1 (antibody, human IgG1, kappa, L234A L235A, V domains shown)
VH: QVQLQESGPGLVKPSGTLSLTCAVSGGSISSSNWWSWVRQPPGKGLEWIGEIYHSGSTNYNPSLKSRVTISVDKSKNQFSLKLSSVTAADTAVYYCARWTGRTDAFDIWGQGTMVTVSS
VL: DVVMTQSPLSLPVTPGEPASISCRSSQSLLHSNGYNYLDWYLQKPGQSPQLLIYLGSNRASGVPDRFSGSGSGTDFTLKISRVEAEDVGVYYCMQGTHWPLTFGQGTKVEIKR
notes: Variable and constant regions are directly spliced; also called anti-IGF-1R antibody PHP1003-1
B1 was tested, and the “IC50 of inhibition of MCF-7 cell proliferation (CCK8, OD450)” value (“IC50 of inhibition … (CCK8, OD450)” for short) (IGF-1R on MCF-7 cells) was 2.37 µg/mL, the Kd (Human IGF-1R protein) was 1.27 nM and the koff (Human IGF-1R protein) was 0.000347 s⁻¹. The kon (Human IGF-1R protein) was 274000 M⁻¹ s⁻¹.

B2: PHP1003-2 (antibody, human IgG1, kappa, L234A L235A, V domains shown)
VH: EVQLVQSGGGLVKPGGSLRLSCAASGFTFSSFAMHWVRQAPGKGLEWISVIDTRGATYYADSVKGRFTISRDNAKNSLYLQMNSLRAEDTAVYYCARLGNFYYGMDVWGQGTTVTVSS
VL: EIVLTQSPGTLSVSPGERATLSCRASQSIGSSLHWYQQKPGQAPRLLIKYASQSLSGIPDRFSGSGSGTDFTLTISRLEPEDFAVYYCHQSSRLPHTFGQGTKVEIKR
notes: Variable and constant regions are directly spliced
With B2 the “IC50 of inhibition … (CCK8, OD450)” value (IGF-1R on MCF-7 cells) was 3.93 µg/mL, the Kd (Human IGF-1R protein) was 3.83 nM and the koff (Human IGF-1R protein) was 0.000874 s⁻¹. For the same binder, the kon (Human IGF-1R protein) was 228000 M⁻¹ s⁻¹.

B3: PHP1003-4 (antibody, human IgG1, kappa, L234A L235A, V domains shown)
VH: EVQLVQSGAEVKKPGSSVKVSCKASGGTFSSYAISWVRQAPGQGLEWMGGIIPIFGTANYAQKFQGRVTITADKSTSTAYMELSSLRSEDTAVYYCARAPLRFLEWSTQDHYYYYYMDVWGKGTTVTVSS
VL: SSELTQDPAVSVALGQTVRITCQGDSLRSYYATWYQQKPGQAPILVIYGENKRPSGIPDRFSGSSSGNTASLTITGAQAEDEADYYCKSRDGSGQHLVFGGGTKLTVLR
notes: as for B2
B3 was tested, and the “IC50 of inhibition … (CCK8, OD450)” value (IGF-1R on MCF-7 cells) was 4.05 µg/mL, the Kd (Human IGF-1R protein) was 5.91 nM and the koff (Human IGF-1R protein) was 0.00146 s⁻¹. The kon (Human IGF-1R protein) was 247000 M⁻¹ s⁻¹.

B4: PHP1003-5 (antibody, human IgG1, kappa, L234A L235A, V domains shown)
VH: EVQLLESGGGLVQPGGSLRLSCTASGFTFSSYAMNWVRQAPGKGLEWVSAISGSGGTTFYADSVKGRFTISRDNSRTTLYLQMNSLRAEDTAVYYCAKDLGWSDSYYYYYGMDVWGQGTTVTVSS
VL: DIQMTQFPSSLSASVGDRVTITCRASQGIRNDLGWYQQKPGKAPKRLIYAASRLHRGVPSRFSGSGSGTEFTLTISSLQPEDFATYYCLQHNSYPCSFGQGTKLEIKR
notes: as for B2
With B4 the “IC50 of inhibition … (CCK8, OD450)” value (IGF-1R on MCF-7 cells) was 0.96 µg/mL, the Kd (Human IGF-1R protein) was 0.701 nM and the koff (Human IGF-1R protein) was 0.000396 s⁻¹. For the same binder, the kon (Human IGF-1R protein) was 565000 M⁻¹ s⁻¹.

B5: PHP1003-6 (antibody, human IgG1, kappa, L234A L235A, V domains shown)
VH: QVQLQESGGGVVQPGRSLRLSCSASGFTFSDYYMYWVRQAPGKGLEWVAYITNYGGSTYYPDTVKGRFTISRDNAKNTLFLQMDSLRPEDTGVYFCARQSNYDYDGWFAYWGQGTPVTVSS
VL: DIQLTQSPSSLSASVGDRVTITCKASQEVGTAVAWYQQKPGKAPKLLIYWASTRHTGVPSRFSGSGSGTDFTFTISSLQPEDIATYFCQQYSNYPLTFGQGTKVEIKR
notes: as for B2
With B5 the “IC50 of inhibition … (CCK8, OD450)” value (IGF-1R on MCF-7 cells) was 3.81 µg/mL, the Kd (Human IGF-1R protein) was 1.12 nM and the koff (Human IGF-1R protein) was 0.000472 s⁻¹. For the same binder, the kon (Human IGF-1R protein) was 422000 M⁻¹ s⁻¹.

B6: PHP1003-7 (antibody, human IgG1, kappa, L234A L235A, V domains shown)
VH: QVQLQESGPGLVKPSETLSLTCTVSGYSITGGYLWNWIRQPPGKGLEWIGYISYDGTNNYKPSLKDRVTISRDTSKNQFSLKLSSVTAADTAVYYCARYGRVFFDYWGQGTLVTVSS
VL: DIVMTQSPLSLPVTPGEPASISCRSSQSIVHSNGNTYLQWYLQKPGQSPQLLIYKVSNRLYGVPDRFSGSGSGTDFTLKISRVEAEDVGVYYCFQGSHVPWTFGQGTKVEIKR
notes: as for B2
In the case of B6, the “IC50 of inhibition … (CCK8, OD450)” value (IGF-1R on MCF-7 cells) is reported as 2.14 µg/mL, the Kd (Human IGF-1R protein) is reported as 8.98 nM and the koff (Human IGF-1R protein) is reported as 0.000883 s⁻¹. The kon (Human IGF-1R protein) was 98300 M⁻¹ s⁻¹.
